The values that follow come from article doi:10.1101/2025.02.22.639503 (bioRxiv, 2025).

Several values for one entry are separate records, joined by “and”; a condition that tells them apart may be missing. Identical values can stand only once.

The chains are these.
B1: HSV-1 terminase subunit pUL15 (His-pUL15) (natural protein)
chain: MFGQQLASDVQQYLERLEKQRQLKVGADEASAGLTMGGDALRVPFLDFATATPKRHQTVVPGVGTLHDCCEHSPLFSAVARRLLFNSLVPAQLKGRDFGGDHTAKLEFLAPELVRAVARLRFKECAPADVVPQRNAYYSVLNTFQALHRSEAFRQLVHFVRDFAQLLKTSFRASSLTETTGPPKKRAKVDVATHGRTYGTLELFQKMILMHATYFLAAVLLGDHAEQVNTFLRLVFEIPLFSDAAVRHFRQRATVFLVPRRHGKTWFLVPLIALSLASFRGIKIGYTAHIRKATEPVFEEIDACLRGWFGSARVDHVKGETISFSFPDGSRSTIVFASSHNTNGIRGQDFNLLFVDEANFIRPDAVQTIMGFLNQANCKIIFVSSTNTGKASTSFLYNLRGAADELLNVVTYICDDHMPRVVTHTNATACSCYILNKPVFITMDGAVRRTADLFLADSFMQEIIGGQARETGDDRPVLTKSAGERFLLYRPSTTTNSGLMAPDLYVYVDPAFTANTRASGTGVAVVGRYRDDYIIFALEHFFLRALTGSAPADIARCVVHSLTQVLALHPGAFRGVRVAVEGNSSQDSAVAIATHVHTEMHRLLASEGADAGSGPELLFYHCEPPGSAVLYPFFLLNKQKTPAFEHFIKKFNSGGVMASQEIVSATVRLQTDPVEYLLEQLNNLTETVSPNTDVRTYSGKRNGASDDLMVAVIMAIYLAAQAGPPHTFAPITRVS

Holding throughout (assay): native MS
Series [1] deals with Alcohol Dehydrogenase from Saccharomyces cerevisiae (Saccharomyces cerevisiae) (UniProt P00330).
Series [2] addresses HSV-1 terminase-associated protein pUL32 (Strep-pUL32) (herpes simplex virus 1 (HSV-1)) (UniProt P10216).
Series [3] addresses KSHV (HHV-8) pORF68 (TwinStrep-ORF68) (human herpesvirus 8 (KSHV HHV-8)).
In series [4] the target is T1, HSV-1 terminase subunit pUL28 (herpes simplex virus 1 (HSV-1, strain …, UniProt P10212 1-785)).
T1 sequence: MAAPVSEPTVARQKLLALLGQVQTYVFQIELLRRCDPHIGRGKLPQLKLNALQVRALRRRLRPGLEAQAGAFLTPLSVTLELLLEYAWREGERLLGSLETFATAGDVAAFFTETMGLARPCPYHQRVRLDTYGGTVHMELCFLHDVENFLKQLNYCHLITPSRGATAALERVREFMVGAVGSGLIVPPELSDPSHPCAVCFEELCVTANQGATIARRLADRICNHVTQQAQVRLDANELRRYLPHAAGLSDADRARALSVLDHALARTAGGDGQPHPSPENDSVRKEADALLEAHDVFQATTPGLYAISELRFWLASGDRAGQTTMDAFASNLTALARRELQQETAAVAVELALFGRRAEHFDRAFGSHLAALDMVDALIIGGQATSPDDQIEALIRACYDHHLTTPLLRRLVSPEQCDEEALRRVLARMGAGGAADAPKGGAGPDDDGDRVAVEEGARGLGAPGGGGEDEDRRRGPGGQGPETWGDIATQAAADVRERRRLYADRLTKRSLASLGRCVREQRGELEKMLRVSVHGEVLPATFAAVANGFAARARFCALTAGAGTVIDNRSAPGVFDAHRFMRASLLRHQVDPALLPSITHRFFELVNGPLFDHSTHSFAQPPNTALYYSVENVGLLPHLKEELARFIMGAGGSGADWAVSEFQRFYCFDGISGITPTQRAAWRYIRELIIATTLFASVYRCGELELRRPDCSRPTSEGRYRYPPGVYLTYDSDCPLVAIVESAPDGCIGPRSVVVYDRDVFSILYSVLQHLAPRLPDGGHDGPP

Series [5] concerns the molecule itself.
The target of series [6] is B1.

Usually stoichiometry N stands for the number of molecules, sites or subunits per partner or assembly. For the molecule “Alcohol Dehydrogenase from Saccharomyces cerevisiae (from UniProt P00330 1-348) (enzyme)”, the stoichiometry N in series [1] was determined as 4.
Regarding “HSV-1 terminase-associated protein pUL32 (Strep-pUL32) (from UniProt P10216 1-596) (natural protein)”, the stoichiometry N in series [2] was found to be 3.
In series [3], “KSHV (HHV-8) pORF68 (TwinStrep-ORF68) (natural protein)” showed a stoichiometry N of 10.
As for B1, the binding result in series [4] is reported as “binds”.

B2: HSV-1 terminase heterotrimer (pUL15, pUL28, pUL33) (complex)
chain 1: MFGQQLASDVQQYLERLEKQRQLKVGADEASAGLTMGGDALRVPFLDFATATPKRHQTVVPGVGTLHDCCEHSPLFSAVARRLLFNSLVPAQLKGRDFGGDHTAKLEFLAPELVRAVARLRFKECAPADVVPQRNAYYSVLNTFQALHRSEAFRQLVHFVRDFAQLLKTSFRASSLTETTGPPKKRAKVDVATHGRTYGTLELFQKMILMHATYFLAAVLLGDHAEQVNTFLRLVFEIPLFSDAAVRHFRQRATVFLVPRRHGKTWFLVPLIALSLASFRGIKIGYTAHIRKATEPVFEEIDACLRGWFGSARVDHVKGETISFSFPDGSRSTIVFASSHNTNGIRGQDFNLLFVDEANFIRPDAVQTIMGFLNQANCKIIFVSSTNTGKASTSFLYNLRGAADELLNVVTYICDDHMPRVVTHTNATACSCYILNKPVFITMDGAVRRTADLFLADSFMQEIIGGQARETGDDRPVLTKSAGERFLLYRPSTTTNSGLMAPDLYVYVDPAFTANTRASGTGVAVVGRYRDDYIIFALEHFFLRALTGSAPADIARCVVHSLTQVLALHPGAFRGVRVAVEGNSSQDSAVAIATHVHTEMHRLLASEGADAGSGPELLFYHCEPPGSAVLYPFFLLNKQKTPAFEHFIKKFNSGGVMASQEIVSATVRLQTDPVEYLLEQLNNLTETVSPNTDVRTYSGKRNGASDDLMVAVIMAIYLAAQAGPPHTFAPITRVS
chain 2: MAAPVSEPTVARQKLLALLGQVQTYVFQIELLRRCDPHIGRGKLPQLKLNALQVRALRRRLRPGLEAQAGAFLTPLSVTLELLLEYAWREGERLLGSLETFATAGDVAAFFTETMGLARPCPYHQRVRLDTYGGTVHMELCFLHDVENFLKQLNYCHLITPSRGATAALERVREFMVGAVGSGLIVPPELSDPSHPCAVCFEELCVTANQGATIARRLADRICNHVTQQAQVRLDANELRRYLPHAAGLSDADRARALSVLDHALARTAGGDGQPHPSPENDSVRKEADALLEAHDVFQATTPGLYAISELRFWLASGDRAGQTTMDAFASNLTALARRELQQETAAVAVELALFGRRAEHFDRAFGSHLAALDMVDALIIGGQATSPDDQIEALIRACYDHHLTTPLLRRLVSPEQCDEEALRRVLARMGAGGAADAPKGGAGPDDDGDRVAVEEGARGLGAPGGGGEDEDRRRGPGGQGPETWGDIATQAAADVRERRRLYADRLTKRSLASLGRCVREQRGELEKMLRVSVHGEVLPATFAAVANGFAARARFCALTAGAGTVIDNRSAPGVFDAHRFMRASLLRHQVDPALLPSITHRFFELVNGPLFDHSTHSFAQPPNTALYYSVENVGLLPHLKEELARFIMGAGGSGADWAVSEFQRFYCFDGISGITPTQRAAWRYIRELIIATTLFASVYRCGELELRRPDCSRPTSEGRYRYPPGVYLTYDSDCPLVAIVESAPDGCIGPRSVVVYDRDVFSILYSVLQHLAPRLPDGGHDGPP
chain 3: MAGREGRTRQRTLRDTIPDCALRSQTLESLDARYVSRDGAHDAAVWFEDMTPAELEVVFPTTDAKLNYLSRTQRLASLLTYAGPIKAPDDAAAPQTPDTACVHGELLAAKRERFAAVINRFLDLHQILRG
Take B2: the “stoichiometry N” value in series [5] was 2 and 3.

B3: HSV-1 terminase subunit pUL33 (natural protein)
chain: MAGREGRTRQRTLRDTIPDCALRSQTLESLDARYVSRDGAHDAAVWFEDMTPAELEVVFPTTDAKLNYLSRTQRLASLLTYAGPIKAPDDAAAPQTPDTACVHGELLAAKRERFAAVINRFLDLHQILRG
For B3, the binding result in series [6] is “binds”.
